Source: PMC12723162, “Alphaherpesvirus pUL21 homologs use non-canonical sequences to compete with cellular adaptors for protein phosphatase 1 binding” (The Journal of Biological Chemistry, 2025)
Where a chain is given by its changes, count along the chain named. Names may count otherwise. Primed or numbered codes have the meaning given here. Where no end group is shown, it is not given here. FITC′ = fluorescein isothiocyanate; Ahx = NCCCCCC(=O)O

Experiments:
[1] = molecular target: T1, PP1γ catalytic domain (residues 7–300)-H6 (mouse, UniProt P63087 7-300); assay: fluorescence polarisation; direct titration: 2 nM FITC-GADD34 peptide with a serial dilution of PP1γ catalytic domain; 50 mM HEPES pH 8.0, 500 mM NaCl, 0.05% TWEEN-20; 27 °C; one-site binding model; conditions: both partners purified
T1 construct: mouse PP1γ catalytic domain, residues 7-300; no tag cleavage is described; also called PP1 catalytic domain; protein phosphatase 1; source: E. coli T7 Express lysY/Iq, purified (Ni-NTA, SEC)
T1 sequence (P63087 7-300): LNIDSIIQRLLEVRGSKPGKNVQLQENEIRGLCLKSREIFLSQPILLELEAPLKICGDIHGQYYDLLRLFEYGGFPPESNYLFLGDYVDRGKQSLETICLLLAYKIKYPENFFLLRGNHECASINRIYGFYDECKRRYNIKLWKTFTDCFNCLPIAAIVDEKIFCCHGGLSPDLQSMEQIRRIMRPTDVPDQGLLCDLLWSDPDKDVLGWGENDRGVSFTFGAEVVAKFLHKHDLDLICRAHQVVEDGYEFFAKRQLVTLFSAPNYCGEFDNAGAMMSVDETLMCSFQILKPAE

[2] = molecular target: T1, PP1γ catalytic domain (residues …); assay: fluorescence polarisation; direct titration of PP1γ catalytic domain against FITC-GADD34 peptide in the buffer optimised for pUL21 (Tris pH 8.5 in place of HEPES pH 8); conditions: both partners purified
[3] = molecular target: T1, PP1γ catalytic domain (residues …); assay: fluorescence polarisation; competition: increasing pUL21 added to a pre-formed complex of 2 nM FITC-GADD34 peptide and 250 nM PP1γ catalytic domain; Tris pH 8.5 in place of HEPES pH 8; conditions: both partners purified
endogenous PP1α [4] = assay: GFP affinity capture / co-IP of endogenous PP1α with GFP-tagged bait; format: binding, human; conditions: HEK 293T cells, 24 h post-transfection, GFP-Trap, immunoblot; representative of two independent experiments
endogenous PP1β = conditions: HEK 293T cells; cited from earlier work
Source text: (§1) HSV-1 pUL21 was recently identified as a novel viral PP1 regulatory protein that promotes virus replication and spread. HSV-1 pUL21 and its homologues across the alphaherpesviruses comprise two folded domains ([21], [22]) that are linked by a flexible linker domain ([23]). PP1 binding to pUL21 requires a novel SLiM, termed the Twenty-one Recruitment Of Protein Phosphatase One (TROPPO) motif, that is present in the linker region and is conserved across alphaherpesviruses.

endogenous PP1α [5] = conditions: HEK 293T cells; cited from earlier work
Source text: as §1

endogenous PP1γ = conditions: HEK 293T cells; cited from earlier work
Source text: as §1

[6] = molecular target: T1, PP1γ catalytic domain (residues …); assay: ITC; 25 °C; 50 mM HEPES pH 8.0, 500 mM NaCl, 0.5 mM TCEP; 12 x 3 μl injections; peptide or pORF38-NLT titrated into PP1γ catalytic domain; one-site binding model; syringe and cell contents in Table S1; conditions: both partners purified
[7] = molecular target: T1, PP1γ catalytic domain (residues …); assay: fluorescence polarisation; competition: serial dilution of competitor added to a pre-formed complex of 2 nM FITC-GADD34 peptide and 250 nM PP1γ catalytic domain (final); 50 mM HEPES pH 8.0, 500 mM NaCl, 0.05% TWEEN-20; 27 °C; conditions: both partners purified

B1: GADD34 RVxF+ϕϕ[xF] peptide (residues 552–568), FITC-labelled (peptide)
peptide: {FITC′-Ahx}-KARKVRFSEKVTVHFLA
notes: GADD34 (PP1 regulatory subunit 15A), residues 552-568, RVxF and ϕϕ[xF] motifs; also called fluorescent GADD34 peptide; GADD34 peptide; source: synthetic peptide (GenScript, >95% purity)
Kd [1]: 144 nM | Kd [2]: 55 nM

B2: pUL21-RVxF-H6 (natural protein)
chain: MELSYATTMHYRDVVFYVTTDRNRAYFVCGGCVYSVGRPCASQPGEIAKFGLVVRGTGPDDRVVANYVRSELRQRGLQDVRPIGEDEVFLDSVCLLNPNVSSELDVINTNDVEVLDECLAEYCTSLRTSPGVLISGLRVRAQDRIIELFEHPTIVNVSSHFVYTPSPYVFALAQAHLPRLPSSLEALVSGLFDGIPAPRQPLDAHNPRTDVVITGRRAPRPIAGSGAGSGGAGAKRVTFSEFVQVKHIDRVGPAGVSPAPPPNNTDSSSLVPGAQDSAPPGPTLRELWWVFYAADRALEEPRADSGLTREEVRAVRGFREQAWKLFGSAGAPRAFIGAALGLSPLQKLAVYYYIIHRERRLSPFPALVRLVGRYTQRHGLYVPRPDDPVLADAINGLFRDALAAGTTAEQLLMFDLLPPKDVPVGSDVQADSTALLRFIESQRLAVPGGVISPEHVAYLGAFLSVLYAGRGRMSAATHTARLTGVTSLVLAVGDVDRLSAFDRGAAGAASRTRAAGYLDVLLTVRLARSQHGQSV
notes: methods, results and legend print V239F; also called pUL21 A237V + V239F (RVxF) mutant; source: E. coli T7 Express lysY/Iq, purified (Ni-NTA, SEC); not shown: His6, C-terminal, kept
IC50 [3]: 337 nM

B3: pUL21-GFP (protein)
chain: B2 chain with V237A, F239V
modifications: left off: GFP (from the vector pEGFP-N1), end not stated, kept
Co-IP of endogenous PP1α (endogenous PP1α [4]): efficiently precipitate endogenous PP1α | Co-precipitation of endogenous PP1β (endogenous PP1β): co-precipitates with endogenous PP1α, PP1β and PP1γ | Co-precipitation of endogenous PP1α (endogenous PP1α [5]): co-precipitates with endogenous PP1α, PP1β and PP1γ | Co-precipitation of endogenous PP1γ (endogenous PP1γ): co-precipitates with endogenous PP1α, PP1β and PP1γ

B4: pORF38-NLT-H6 (domain or fragment)
chain: MEFPYHSTVSYNGVTFYFNERATRAYFICGGCLISIPRKHGGEIAKFGHVVRGVGPGDRSVASYVRSELNRTGKTWAVSSNNNCVFLDRVALLAAGSGAVDRDLCGTFDVEVEDPTLADYLVSLPVTHLTLVAGVDVTRENKLKLFPTPTAINTTNGFMYVPNEASFSLVYMRMLELPESLQELVSGLFDGTPEIRDALNGSNDDEKTSIIVSRRAADVVTEDVKADDVPISGEPYSEKQPRRRKKSDHITLSNFVQIRTIPR
notes: VZV pORF38 residues 1-263: N-terminal domain plus linker up to the end of the TROPPO motif (NLT region); Sub-cloned into the vector pOPTnH; also called pOPF38-NLT; source: E. coli T7 Express lysY/Iq, purified (Ni-NTA, SEC); not shown: His6, C-terminal, kept
Kd [6]: 497 nM | stoichiometry N [6]: 1 | IC50 [7]: 417 nM
